Results published in US7666989B2 (priority 2003, dated 2010).
“And” between values parts separate entries of the source, which are not always exact repeats. Identical values can stand only once. Like-named read-outs stand apart in the source and are kept apart here. Marks after values point to notes of the source that are not given here.

What was measured:
[1] = tested on: human colon cancer COLO 205; details: COLO 205 xenograft; for Body Weight (g) End / RTV / Tumor volume (mm^3) End / Tumor weight / Body Weight (g) Start / Tumor volume (mm^3) Start / Inhibition rate (%): 15 injections; for Body Weight (g) Start / Tumor volume (mm^3) Start: baseline; for Inhibition rate (%): by tumor weight
Source text: In this example, the animals used were BALB/c-nu nude mice, 6-8 weeks old. For each experiment, all animals were of the same sex.
Tumor cell lines: human brain glioma U251, human lung cancer cell line NCI-H460, human colon cancer cell line COLO205 were inoculated from in vitro culture into nude mice subcutaneously, the tumors were subcultured and kept.
Experimental Procedures: well-grown nude mice carrying well-grown tumors were selected and sacrificed by disjointing neck vertebra. The tumors were removed aseptically and were cut into pieces having a diameter of 2-3 mm by a scalpel. The pieces were inoculated into the axilla of nude mice subcutaneously by a needle. […] The length and width of tumors were measured by a vernier caliper. The animals were then grouped based their tumor sizes. Each group included seven to eight animals.
The length, width of the tumor and the body weight of the mice were measured twice per week. The tumor volume (TV) and relative tumor volume (RTV) were calculated. A graph indicating the changes of tumor size was plotted. At the end of this experiment, the tumors were taken out and weighed after the mice were sacrificed, and the inhibition rates of the medicament on tumor growth were calculated.
The formula for calculating tumor volume (TV) is: length×width^2÷2.
The formula for calculating relative tumor volume (RTV) is: Vt/Vo (wherein Vo is the TV value measured when the administration is started, Vt is the TV value measured after that).
T-test was used to determine the statistical difference of tumor weights, tumor volumes and RTV etc. between different groups of animal. The index used for evaluating the anti-tumor activity is the relative tumor growth rate T/C (%), the formula for which is: […]
(§1) The evaluation standard for efficacy:
(§2) T/C (%)>60 is ineffective;
T/C (%)≦60 and P<0.05 after statistical analysis is effective.
Injectable hydroxycamptothecin (trade name: Xi Su, Wuhan Lishizhen Pharmaceuticals Inc., Huangshi Lishizhen Pharmaceuticals Group, P. R. China) was used as positive control, administered by intraperitoneal injection at the dose of 1 mg/kg, once per day. The administration was terminated after 15 consecutive days of administration. […] A single administration of 80 mg/kg hydroxycamptothecin was further given after two weeks. CPT was given to three treatment groups at the doses of 1.7 mg/kg, 5.0 mg/kg, 15.0 mg/kg respectively by intraperitoneal injection, once per day. The treatment contained a total of 15 injections.

[2] = tested on: human lung cancer NCI-H460; experiment: Growth of human lung cancer NCI-H460 xenograft in nude mice; format: in vivo, BALB/c-nu nude mice; details: ten injections; for Body Weight (g) Start / Tumor volume (mm^3) Start: baseline; for Inhibition rate (%): by tumor weight
Experimental: The animals were then grouped based their tumor sizes. Each group included seven to eight animals.
as §1, §2
One additional injection was given at 80 mg/kg two weeks later. […] The treatment contained a total of ten injections.

[3] = CPT 1.7 mg/kg i.p. once per day
[4] = CPT 5.0 mg/kg i.p. once per day

B1: CPT: human recombinant circularly permuted TRAIL (CPT), which consists of 166 amino acid residues; SEQ ID No:2 (protein)
chain: TLSSPNSKNEKALGRKINSWESSRSGHSFLSNLHLRNGELVIHEKGFYYIYSQTYFRFQEEIKENTKNDKQMVQYIYKYTSYPDPILLMKSARNSCWSKDAEYGLYSIYQGGIFELKENDRIFVSVTNEHLIDMDHEASFFGAFLVGGGGGGVAAHITGTRGRSNT
modifications: Synthetically generated peptide
In the case of B1, the “Body Weight (g) End” value [1, 3] is reported as 20.6 ± 3.0 g, the RTV [1, 3] is reported as 1.62 ± 0.62 and the “Tumor volume (mm^3) End” value [1, 3] is reported as 582 ± 408** mm^3. For the same molecule, the “Tumor weight” value [1, 3] was 0.40 ± 0.33 g, the “Body Weight (g) Start” value [1, 3] was 20.6 ± 1.1 g and the “Tumor volume (mm^3) Start” value [1, 3] was 205 ± 47 mm^3. For the same molecule, the “Inhibition rate (%)” value [1, 3] was 79.6%, the “Body Weight (g) End” value [1, 4] was 21.4 ± 1.2 g and the RTV [1, 4] was 0.91 ± 0.35. The “Tumor volume (mm^3) End” value [1, 4] was 314 ± 175** mm^3, the “Tumor weight” value [1, 4] was 0.18 ± 0.15 g and the “Body Weight (g) Start” value [1, 4] was 20.2 ± 0.8 g. For the same molecule, the “Tumor volume (mm^3) Start” value [1, 4] was 180 ± 63 mm^3, the “Inhibition rate (%)” value [1, 4] was 90.8% and 90.9% and the “Body Weight (g) End” value ([1]; CPT 15 mg/kg i.p. once per day) was 21.1 ± 2.4 g. For the same molecule, the RTV ([1]; CPT 15 mg/kg i.p. once per day) was 0.33 ± 0.27, the “Tumor volume (mm^3) End” value ([1]; CPT 15 mg/kg i.p. once per day) was 52 ± 53** mm^3 and the “Tumor weight” value ([1]; CPT 15 mg/kg i.p. once per day) was 0.05 ± 0.05 g. The “Body Weight (g) Start” value ([1]; CPT 15 mg/kg i.p. once per day) was 20.0 ± 0.5 g, the “Tumor volume (mm^3) Start” value ([1]; CPT 15 mg/kg i.p. once per day) was 192 ± 81 mm^3 and the “Inhibition rate (%)” value ([1]; CPT 15 mg/kg i.p. once per day) was 97.4% and 97.8%. For the same molecule, the “fraction of animals in which no tumor was found” value ([1]; high-dose CPT (15 mg/kg/day, 15 injections), four weeks after the administration was stopped) was “⅓”, the “Body Weight (g) End” value [2, 3] was 19.8 ± 1.6 g and the RTV [2, 3] was 2.27 ± 1.13. The “T/C (%)” value [2, 3] was 38.0%, the “Tumor volume (mm^3) End” value [2, 3] was 706 ± 170* mm^3 and the “Tumor weight” value [2, 3] was 0.77 ± 0.19 g. The “Body Weight (g) Start” value [2, 3] was 20.1 ± 1.9 g, the “Tumor volume (mm^3) Start” value [2, 3] was 200 ± 103 mm^3 and the “Inhibition rate (%)” value [2, 3] was 52.2%. The “Body Weight (g) End” value [2, 4] was 18.5 ± 2.5 g, the RTV [2, 4] was 1.49 ± 0.76 and the “Tumor volume (mm^3) End” value [2, 4] was 469 ± 359** mm^3. The “Tumor weight” value [2, 4] was 0.41 ± 0.28 g, the “Body Weight (g) Start” value [2, 4] was 20.4 ± 1.9 g and the “Tumor volume (mm^3) Start” value [2, 4] was 187 ± 51 mm^3. For the same molecule, the “Inhibition rate (%)” value [2, 4] was 74.5%, the “Body Weight (g) End” value ([2]; CPT 15 mg/kg i.p. once per day) was 21.1 ± 1.7 g and the RTV ([2]; CPT 15 mg/kg i.p. once per day) was 0.79 ± 0.25. The “Tumor volume (mm^3) End” value ([2]; CPT 15 mg/kg i.p. once per day) was 189 ± 102** mm^3, the “Tumor weight” value ([2]; CPT 15 mg/kg i.p. once per day) was 0.21 ± 0.10 g and the “Body Weight (g) Start” value ([2]; CPT 15 mg/kg i.p. once per day) was 20.9 ± 1.1 g. For the same molecule, the “Tumor volume (mm^3) Start” value ([2]; CPT 15 mg/kg i.p. once per day) was 192 ± 63 mm^3 and the “Inhibition rate (%)” value ([2]; CPT 15 mg/kg i.p. once per day) was 87.0% and 88.8%.
